How the values were obtained:
Experiment in all cases: SPR Biacore 8k, antibody captured
[1] = target: lambda Bence Jones protein Lam885
[2] = target: lambda Bence Jones protein Lam788a
[3] = target: lambda Bence Jones protein Lam134c
[4] = target: lambda free light chain Sigma
[5] = target: lambda free light chain MyBio
[6] = target: lambda Bence Jones protein Lam893c

Kd [1]: 0.0707 nM
Kd [2]: 0.11 nM
Kd [3]: 0.0453 nM
Kd [4]: 0.522 nM
Kd [5]: 0.0437 nM
Kd [6]: 0.0401 nM
B1: 10B3-VL1 (antibody, human IgG1, kappa, V domains shown)
VH: EVQLVESGGGLVKPGGSLRLSCAASGFTFSSYSMNWVRQAPGKGLEWVSFISSNRNYIYYADSVKGRFTISRDNAKNSLYLQMNSLRAEDTAVYYCASLANWGTYFDYWGQGTLVTVSS
VL: DIQMTQSPSSLSASVGDRVTITCRASQGISSWLAWYQQKPEKAPKSLIYAASSLQSGVPSRFSGSGSGTDFTLTISSLQPEDFATYYCRQYNSYPLTFGGGTKVEIRR

From patent US12435158
